{
  "source": "paper PMC5569669",
  "about": "“Rhenium and Technetium-oxo Complexes with Thioamide Derivatives of Pyridylhydrazine Bifunctional Chelators Conjugated to the Tumour Targeting Peptides Octreotate and Cyclic-RGDfK” (Inorganic Chemistry, 2017)",
  "type": "in vitro ADME, human",
  "protocol": "Human blood samples were centrifuged with a Heraeus Labofuge 6000 centrifuge at 3000g for 10 min (Heraeus, Hanau, Germany). Radioactivity readings for serum stability studies were taken with a Capintec CRC-35R dose calibrator (Capintec, New Jersey, USA) and were measured in MBq. Centrifugation of radioactive compounds was undertaken using an Eppendorf 5415 D centrifuge (Eppendorf, Hamburg, Germany). Partition coefficient data were collected with a PerkinElmer, Wizard 1470 (PerkinElmer, Massachusetts, USA) automatic γ counter, which measured the radioactive decay of each sample in counts per minute (cpm).\nFor serum stability studies, blood from a healthy person (20 mL) was centrifuged (10 min, 3000 rpm) to separate blood plasma and red blood cells. The plasma was transferred to a separate vial and the red blood cells were discarded. An aliquot of plasma (0.6 mL) was added to labeled compound, [^99mTc(HL^3(Tyr^3-Oct))2]^+ (0.15 mL), the radioactivity was monitored and the mixture was then incubated at 37 °C. […] The radioactivity of the supernatant and pellet was recorded. The supernatant (20 μL) was analyzed by analytical RP-HPLC (Column 7, System C) for UV and radioactivity analysis and the pellet were washed with acetonitrile (3 × 0.1 mL), and radioactivity levels were again recorded (radioactivity levels of the pellet were negligible).",
  "data": [
    {"smiles": "C[C@@H](O)[C@H](NC(=O)[C@@H]1CSSC[C@H](NC(=O)[C@@H](Cc2ccccc2)NC(=O)c2ccc(NNC(=S)Nc3ccccc3)nc2)C(=O)N[C@@H](Cc2ccc(O)cc2)C(=O)N[C@H](Cc2c[nH]c3ccccc23)C(=O)N[C@@H](CCCCN)C(=O)N[C@@H]([C@@H](C)O)C(=O)N1)C(=O)O", "note": "(99mTc complex, metal not drawn) [[^99mTcO(HL^3(Tyr^3-Oct))2]^+]", "values": [
      {"measurement": "degradation products in human plasma", "result": "< 5", "unit": "%"},
      {"measurement": "radioactivity levels of the pellet (precipitated serum proteins)", "result": "negligible"}
    ]}
  ]
}
